Laboratory results as given in the Immune Epitope Database (IEDB).
Blank lines part the entries; values can stand above or below the sequence they belong to.

Tests used:
HLA-A*01:01 [1] = assay: IEDB peptide-MHC binding, purified MHC/direct/fluorescence; filed as Kd, often an IC50 or EC50 that approximates it; ≥ and ≤ were set here for values at or beyond the usual limits of such assays
HLA-A*02:03 [2] = assay: as above; settings: source organism: Lechiguanas virus
HLA-A*02:12 = assay: as above; settings: source organism: Lechiguanas virus
HLA-A*02:19 = assay: as above; settings: source organism: Lechiguanas virus
HLA-A*03:01 [3] = assay: as above
HLA-A*23:01 = assay: as above; settings: source organism: Lechiguanas virus
HLA-A*24:03 = assay: as above
HLA-A*68:02 = assay: as above; settings: source organism: Lechiguanas virus
HLA-A*02:01 [4] = assay: IEDB peptide-MHC binding, purified MHC/competitive/fluorescence; filed as Kd, often an IC50 or EC50 that approximates it; ≥ and ≤ were set here for values at or beyond the usual limits of such assays; settings: source organism: Neembucu hantavirus
HLA-A*26:01 [5] = assay: as above
HLA-B*15:17 = assay: as above; settings: source organism: Neembucu hantavirus
HLA-B*18:01 = assay: as above; settings: source organism: Neembucu hantavirus
HLA-B*27:03 = assay: as above; settings: source organism: Neembucu hantavirus
HLA-B*39:01 = assay: as above
HLA-B*46:01 = assay: as above; settings: source organism: Neembucu hantavirus
HLA-B*51:01 = assay: as above; settings: source organism: Neembucu hantavirus
HLA-B*57:01 = assay: as above; settings: source organism: Neembucu hantavirus
HLA-B*40:01 [6] = assay: as above
HLA-A*01:01 [7] = assay: as above
HLA-A*30:01 [8] = assay: as above; settings: source organism: Encephalitozoon cuniculi GB-M1
HLA-B*15:01 [9] = assay: IEDB peptide-MHC binding, purified MHC/direct/fluorescence; filed as Kd, often an IC50 or EC50 that approximates it; ≥ and ≤ were set here for values at or beyond the usual limits of such assays
HLA-B*58:01 [10] = assay: IEDB peptide-MHC binding, purified MHC/competitive/fluorescence; filed as Kd, often an IC50 or EC50 that approximates it; ≥ and ≤ were set here for values at or beyond the usual limits of such assays
HLA-A*02:01 [11] = assay: IEDB peptide-MHC binding, purified MHC/direct/fluorescence; filed as Kd, often an IC50 or EC50 that approximates it; ≥ and ≤ were set here for values at or beyond the usual limits of such assays
HLA-A*11:01 = assay: as above
HLA-A*26:01 [12] = assay: as above
HLA-A*30:01 [13] = assay: as above
HLA-A*31:01 = assay: as above
HLA-A*69:01 = assay: as above
HLA-B*07:02 = assay: as above
HLA-B*08:01 = assay: as above
HLA-B*27:05 = assay: as above
HLA-B*35:01 = assay: as above
HLA-B*40:01 [14] = assay: as above
HLA-B*44:02 = assay: as above
HLA-B*58:01 [15] = assay: as above
HLA-A*03:01 [16] = assay: IEDB peptide-MHC binding, purified MHC/competitive/fluorescence; filed as Kd, often an IC50 or EC50 that approximates it; ≥ and ≤ were set here for values at or beyond the usual limits of such assays; settings: source organism: Yersinia pestis Nepal516
HLA-B*15:01 [17] = assay: as above; settings: source organism: Yersinia pestis Nepal516
HLA-A*02:01 [18] = assay: IEDB peptide-MHC binding, purified MHC/competitive/radioactivity; filed as Kd, often an IC50 or EC50 that approximates it; ≥ and ≤ were set here for values at or beyond the usual limits of such assays; settings: source organism: Dengue virus 3 China/80-2/1980
HLA-A*02:17 = assay: as above; settings: source organism: Dengue virus 3 China/80-2/1980
HLA-A*02:03 [19] = assay: as above; settings: source organism: Dengue virus 3 Martinique/1243/1999
HLA-A*02:06 = assay: as above; settings: source organism: Dengue virus 3 Martinique/1243/1999
HLA-A*32:01 = assay: as above; settings: source organism: Dengue virus 3 Singapore/8120/1995
[20] = source organism: Neembucu hantavirus
[21] = source organism: Lechiguanas virus
[22] = source organism: Escherichia coli 101-1
[23] = source organism: Yersinia pestis Nepal516
[24] = source organism: Salmonella enterica subsp. enterica serovar Typhi
[25] = source organism: Vibrio cholerae
[26] = source organism: Vibrio vulnificus
[27] = source organism: Corynebacterium glutamicum

Sequence: ETESATLFT
- Kd (HLA-A*01:01 [1]; [20]): 0.592 µM
- Kd (HLA-A*02:03 [2]): ≥ 20 µM
- Kd (HLA-A*02:12): ≥ 20 µM
- Kd (HLA-A*02:19): ≥ 20 µM
- Kd (HLA-A*03:01 [3]; [21]): ≥ 20 µM
- Kd (HLA-A*23:01): ≥ 20 µM
- Kd (HLA-A*24:03; [21]): ≥ 20 µM
- Kd (HLA-A*68:02): ≥ 20 µM
- Kd (HLA-A*02:01 [4]): ≥ 20 µM
- Kd (HLA-A*26:01 [5]; [20]): ≥ 20 µM
- Kd (HLA-B*15:17): ≥ 20 µM
- Kd (HLA-B*18:01): ≥ 20 µM
- Kd (HLA-B*27:03): ≥ 20 µM
- Kd (HLA-B*39:01; [20]): ≥ 20 µM
- Kd (HLA-B*46:01): ≥ 20 µM
- Kd (HLA-B*51:01): ≥ 20 µM
- Kd (HLA-B*57:01): ≥ 20 µM

- Kd (HLA-B*39:01; [22]): 3.82 µM
- Kd (HLA-B*40:01 [6]; [22]): 0.0097 µM
Sequence: FEANALSVI

Sequence: GEMLVATSL
- Kd (HLA-B*40:01 [6]; [23]): 0.0042 µM

- Kd (HLA-B*40:01 [6]; source organism: Escherichia coli O139:H28 str. E24377A): ≥ 20 µM
Sequence: GEVRGYLVK

- Kd (HLA-A*01:01 [7]; source organism: Encephalitozoon cuniculi GB-M1): ≥ 20 µM
- Kd (HLA-A*30:01 [8]): 0.246 µM
Sequence: GGRKLKLTK

Sequence: HEAEYNLSL
- Kd (HLA-B*39:01; [24]): 0.0019 µM
- Kd (HLA-B*40:01 [6]; [24]): 0.0046 µM

Sequence: IASLTGWQW
- Kd (HLA-B*15:01 [9]; source organism: Mycobacterium tuberculosis str. Haarlem): 16 µM
- Kd (HLA-B*58:01 [10]; source organism: Mycobacterium tuberculosis variant bovis BCG str. Pasteur 1173P2): 0.0006 µM

Sequence: IELITTIGF
- Kd (HLA-B*40:01 [6]; source organism: Bacillus cereus 03BB102): 0.0532 µM

Sequence: IPISGRITA
- Kd (HLA-A*01:01 [1]; [25]): ≥ 20 µM
- Kd (HLA-A*02:01 [11]; [25]): ≥ 20 µM
- Kd (HLA-A*03:01 [3]; [25]): ≥ 20 µM
- Kd (HLA-A*11:01; [25]): ≥ 20 µM
- Kd (HLA-A*24:03; [25]): ≥ 20 µM
- Kd (HLA-A*26:01 [12]; [25]): ≥ 20 µM
- Kd (HLA-A*30:01 [13]; [25]): ≥ 20 µM
- Kd (HLA-A*31:01; [25]): ≥ 20 µM
- Kd (HLA-A*69:01; [25]): ≥ 20 µM
- Kd (HLA-B*07:02; [25]): 0.0244 µM
- Kd (HLA-B*08:01; [25]): ≥ 20 µM
- Kd (HLA-B*15:01 [9]; [25]): ≥ 20 µM
- Kd (HLA-B*27:05; [25]): ≥ 20 µM
- Kd (HLA-B*35:01; [25]): 0.0172 µM
- Kd (HLA-B*40:01 [14]; [25]): ≥ 20 µM
- Kd (HLA-B*44:02; [25]): ≥ 20 µM
- Kd (HLA-B*58:01 [15]; [25]): ≥ 20 µM

Sequence: KTAVVVTRY
- Kd (HLA-A*01:01 [7]; [23]): 0.455 µM
- Kd (HLA-A*03:01 [16]): 0.676 µM
- Kd (HLA-B*15:01 [17]): 0.674 µM
- Kd (HLA-B*58:01 [10]; [23]): 0.0362 µM

Sequence: KVMALPIPH
- Kd (HLA-A*01:01 [1]; [26]): ≥ 20 µM
- Kd (HLA-A*02:01 [11]; [26]): ≥ 20 µM
- Kd (HLA-A*03:01 [3]; [26]): 0.174 µM
- Kd (HLA-A*11:01; [26]): 0.0247 µM
- Kd (HLA-A*24:03; [26]): ≥ 20 µM
- Kd (HLA-A*26:01 [12]; [26]): ≥ 20 µM
- Kd (HLA-A*30:01 [13]; [26]): 5.28 µM
- Kd (HLA-A*31:01; [26]): 0.136 µM
- Kd (HLA-A*69:01; [26]): ≥ 20 µM
- Kd (HLA-B*07:02; [26]): 9.25 µM
- Kd (HLA-B*08:01; [26]): ≥ 20 µM
- Kd (HLA-B*15:01 [9]; [26]): 0.452 µM
- Kd (HLA-B*27:05; [26]): ≥ 20 µM
- Kd (HLA-B*35:01; [26]): 0.374 µM
- Kd (HLA-B*40:01 [14]; [26]): ≥ 20 µM
- Kd (HLA-B*44:02; [26]): ≥ 20 µM
- Kd (HLA-B*58:01 [15]; [26]): ≥ 20 µM

Sequence: LLLGLMILLT
- Kd (HLA-A*02:01 [18]): 1.66 µM
- Kd (HLA-A*02:17): 0.697 µM

Sequence: MSLMTGEQF
- Kd (HLA-B*58:01 [10]; source organism: Bacillus anthracis str. A0488): 0.0165 µM

Sequence: RLITANPVV
- Kd (HLA-A*02:03 [19]): 0.0363 µM
- Kd (HLA-A*02:06): 0.0651 µM
- Kd (HLA-A*02:17): 0.52 µM

Sequence: RTLDTLALY
- Kd (HLA-A*01:01 [7]; [23]): 1.21 µM
- Kd (HLA-A*03:01 [16]): 0.132 µM
- Kd (HLA-A*26:01 [5]; [23]): 4.5 µM
- Kd (HLA-B*58:01 [10]; [23]): 0.0084 µM

Sequence: VETYVLSII
- Kd (HLA-B*40:01 [6]; source organism: Influenza A virus (A/parakeet/Chiba/1/97(H9N2))): 0.013 µM

Sequence: VLFTFVLLL
- Kd (HLA-A*02:17): 0.568 µM
- Kd (HLA-A*32:01): 0.494 µM

- Kd (HLA-A*01:01 [1]; [27]): ≥ 20 µM
- Kd (HLA-A*02:01 [11]; [27]): ≥ 20 µM
- Kd (HLA-A*03:01 [3]; [27]): ≥ 20 µM
- Kd (HLA-A*11:01; [27]): ≥ 20 µM
- Kd (HLA-A*24:03; [27]): ≥ 20 µM
- Kd (HLA-A*26:01 [12]; [27]): ≥ 20 µM
- Kd (HLA-A*30:01 [13]; [27]): ≥ 20 µM
- Kd (HLA-A*31:01; [27]): ≥ 20 µM
- Kd (HLA-A*69:01; [27]): ≥ 20 µM
- Kd (HLA-B*08:01; [27]): ≥ 20 µM
- Kd (HLA-B*15:01 [9]; [27]): 0.443 µM
- Kd (HLA-B*27:05; [27]): ≥ 20 µM
- Kd (HLA-B*35:01; [27]): 0.777 µM
- Kd (HLA-B*40:01 [14]; [27]): 14.3 µM
- Kd (HLA-B*58:01 [15]; [27]): ≥ 20 µM
Sequence: YELLRYNEY
